From publication PMC7647994 (2020)
Where two headings read alike, the source gives them in different places.

Key:
[1] = biological target: H10-tagged zinc-binding domain of human CLPX (human); assay: SEC; Superose 12; H10PDIP38, ZBD, or both together; elution profiles from quantified protein bands
[2] = biological target: H10-tagged zinc-binding domain of human CLPX (human); assay: pull-down; series of pull-down experiments to estimate the affinity of PDIP38 for the ZBD (Supplementary Fig. 3)
[3] = biological target: T1, H10-tagged zinc-binding domain of human CLPX (human)
T1 chain: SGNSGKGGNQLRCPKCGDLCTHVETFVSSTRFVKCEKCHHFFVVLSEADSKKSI

## H10-tagged zinc-binding domain of human CLPX (domain or fragment)
[1]
  stoichiometry N: 2

B1: untagged PDIP38 (natural protein)
chain: SSRNRPEGKVLETVGVFEVPKQNGKYETGQLFLHSIFGYRGVVLFPWQARLYDRDVASAAPEKAENPAGHGSKEVKGKTHTYYQVLIDARDCPHISQRSQTEAVTFLANHDDSRALYAIPGLDYVSHEDILPYTSTDQVPIQHELFERFLLYDQTKAPPFVARETLRAWQEKNHPWLELSDVHRETTENIRVTVIPFYMGMREAQNSHVYWWRYCIRLENLDSDVVQLRERHWRIFSLSGTLETVRGRGVVGREPVLSKEQPAFQYSSHVSLQASSGHMWGTFRFERPDGSHFDVRIPPFSLESNKDEKTPPSGLHW
[2]
  Kd: 1800 nM

B2: His10-tagged recombinant PDIP38 (H10PDIP38) (natural protein)
chain: SSRNRPEGKVLETVGVFEVPKQNGKYETGQLFLHSIFGYRGVVLFPWQARLYDRDVASAAPEKAENPAGHGSKEVKGKTHTYYQVLIDARDCPHISQRSQTEAVTFLANHDDSRALYAIPGLDYVSHEDILPYTSTDQVPIQHELFERFLLYDQTKAPPFVARETLRAWQEKNHPWLELSDVHRETTENIRVTVIPFYMGMREAQNSHVYWWRYCIRLENLDSDVVQLRERHWRIFSLSGTLETVRGRGVVGREPVLSKEQPAFQYSSHVSLQASSGHMWGTFRFERPDGSHFDVRIPPFSLESNKDEKTPPSGLHW
[1]
  stoichiometry N (PDIP38 per ZBD2): 1

B3: GST-PDIP38 fusion protein (natural protein)
chain: SSRNRPEGKVLETVGVFEVPKQNGKYETGQLFLHSIFGYRGVVLFPWQARLYDRDVASAAPEKAENPAGHGSKEVKGKTHTYYQVLIDARDCPHISQRSQTEAVTFLANHDDSRALYAIPGLDYVSHEDILPYTSTDQVPIQHELFERFLLYDQTKAPPFVARETLRAWQEKNHPWLELSDVHRETTENIRVTVIPFYMGMREAQNSHVYWWRYCIRLENLDSDVVQLRERHWRIFSLSGTLETVRGRGVVGREPVLSKEQPAFQYSSHVSLQASSGHMWGTFRFERPDGSHFDVRIPPFSLESNKDEKTPPSGLHW
[3]
  Kd: ~1800 nM
